Measured values reported in US20240092836A1.
Bridges are numbered along the chain shown (N, C = ends). Primed or numbered codes have the meaning given here. Where no end group is shown, it is not given here. The star is where a group is joined. Biotin = O=C1N[C@H]2[C@H](CS[C@H]2CCCCC(=O)*)N1; PEG4 = NCCOCCOCCOCCOCCC(=O)O; PEG4′ = not defined here

Each binder was assayed against Recombinant Human CTLA4-Fc chimera (R&D systems) (human) (UniProt P16410) (assay: ELISA EC50, purified MBP fusions).

fold improvement of affinity over the original clone	Binder
50 fold	GGCLHPFLPIVSHHFCGR (peptide, not shown: large carriers; small tags and cut ends) [C4-302mat-3-100-44]
50 fold	GGCMHPFLPVVSRHFCGR (peptide, not shown: large carriers; small tags and cut ends) [C4-302mat-3-1-12]

The binders below were run against Recombinant Human CTLA4-Fc chimera (R&D systems) (human) (UniProt P16410) (assay: BLItz (BLI), synthetic biotinylated peptides).

fold higher affinity than the original clone (H12SSI-Ctla4-3-02)	Binder
3 fold	{Biotin-PEG4}-KCMHPFLPIVSHHFCER (disulfide 2-15) [biotinylated clone #19: Biotin-PEG4-…]

Each binder was assayed against Recombinant Human CTLA4-Fc chimera (R&D systems) (human) (UniProt P16410) (assay: BLItz (BLI), biotinylated CTLA-4 on SA chip, MBP fusion as analyte).

Kd	koff	kon	Binder
3880 nM	0.0123 s⁻¹	3180 M⁻¹ s⁻¹	GGCMHPFLLVVSHHFCGG (peptide, not shown: large carriers; small tags and cut ends) [H12SSI-Ctla4-3-02 (MBP fusion)]

The binders below were run against Recombinant Human CTLA4-Fc chimera (R&D systems) (human) (UniProt P16410) (assay: BLItz (BLI), biotinylated peptide on SA chip, CTLA-4 protein as analyte).

Kd	koff	kon	Binder
191 nM	0.022 s⁻¹	115000 M⁻¹ s⁻¹	{Biotin-PEG4′}-KCMHPFLLVVSHHFC (disulfide 2-15) [biotinylated H12SSI-Ctla4-3-02: Biotin-PEG4-…]
61.8 nM	0.0128 s⁻¹	208000 M⁻¹ s⁻¹	{Biotin-PEG4}-KCMHPFLPIVSHHFCER (disulfide 2-15) [biotinylated clone #19: Biotin-PEG4-…]

The binders below were run against Recombinant Human CTLA4-Fc chimera (R&D systems) (human) (UniProt P16410) (assay: ELISA, purified MBP fusion on immobilised CTLA-4).

Binder	EC50
GGCVHPFLPVVSHHFCRG (peptide, not shown: large carriers; small tags and cut ends) [C4-302mat-3-100-20]	889 nM
GGCMHPFLPVASHHFCAG (peptide, not shown: large carriers; small tags and cut ends) [C4-302mat-3-100-27]	352 nM
GGCRHPFLPIVSRHFCRG (peptide, not shown: large carriers; small tags and cut ends) [C4-302mat-3-1-45]	300 nM
GGCMHPFLPVASHHFCGR (peptide, not shown: large carriers; small tags and cut ends) [C4-302mat-3-1-22]	222 nM
GGCKHPFLPVVSHHFCGG (peptide, not shown: large carriers; small tags and cut ends) [C4-302mat-3-100-9]	832 nM
GGCMHPFLPILSHHFCAG (peptide, not shown: large carriers; small tags and cut ends) [C4-302mat-3-1-32]	322 nM
GGCMHPYLPVISHHFCGR (peptide, not shown: large carriers; small tags and cut ends) [C4-302mat-3-100-12]	217 nM
GGCLHPFLPLVSHHFCGG (peptide, not shown: large carriers; small tags and cut ends) [C4-302mat-2-1-38]	867 nM
GGCLHPFLPVVSHHFCGD (peptide, not shown: large carriers; small tags and cut ends) [C4-302mat-2-1-2]	474 nM
GGCMHPFLPVTSHHFCGG (peptide, not shown: large carriers; small tags and cut ends) [C4-302mat-2-1-3]	826 nM
GGCKHPYLPVASHHFCRG (peptide, not shown: large carriers; small tags and cut ends) [C4-302mat-3-1-10]	703 nM
GGCMHPYLPVISHHFCGG (peptide, not shown: large carriers; small tags and cut ends) [C4-302mat-2-1-27]	1640 nM
GGCMHPFLPVVSHHFCGA (peptide, not shown: large carriers; small tags and cut ends) [C4-302mat-3-1-48]	187 nM
GGCMHPFLQTVSHHFCGG (peptide, not shown: large carriers; small tags and cut ends) [C4-302mat-3-1-35]	668 nM
GGCMHPFLPIVSHHFCGS (peptide, not shown: large carriers; small tags and cut ends) [C4-302mat-2-100-27]	189 nM
GGCMHPFLPVVSHHFCRG (peptide, not shown: large carriers; small tags and cut ends) [C4-302mat-2-100-18]	369 nM
GGCMHPFLLVVSHHFCGG (peptide, not shown: large carriers; small tags and cut ends) [H12SSI-Ctla4-3-02 (MBP fusion)]	3920 nM
GGCMHPFLPVVSHHFCGR (peptide, not shown: large carriers; small tags and cut ends) [C4-302mat-3-100-37]	225 nM

The remaining lines, values ahead:

EC50	Binder
288 nM	GGCMHPFLPVASHHFCGG (peptide, not shown: large carriers; small tags and cut ends) [C4-302mat-1-1-35]
82 nM	GGCLHPFLPIVSHHFCGR (peptide, not shown: large carriers; small tags and cut ends) [C4-302mat-3-100-44]
85 nM	GGCMHPFLPVVSRHFCGR (peptide, not shown: large carriers; small tags and cut ends) [C4-302mat-3-1-12]
4180 nM	GGCMHPFLQVVSHHFCGG (peptide, not shown: large carriers; small tags and cut ends) [C4-302mat-2-100-4]
1490 nM	GGCMHPFLRVVSHHFCGG (peptide, not shown: large carriers; small tags and cut ends) [C4-302mat-1-1-37]
674 nM	GGCMHPFLPVVSRHFCGG (peptide, not shown: large carriers; small tags and cut ends) [C4-302mat-3-1-5]
342 nM	GSCMHPFLPVASRHFCGR (peptide, not shown: large carriers; small tags and cut ends) [C4-302mat-3-1-31]
160 nM	GGCMHPFLPIASLHFCGR (peptide, not shown: large carriers; small tags and cut ends) [C4-302mat-3-1-23]
1040 nM	GGCMHPFLPVVSHHFCGG (peptide, not shown: large carriers; small tags and cut ends) [C4-302mat-1-1-24]

What follows are binders tested against Recombinant Human CTLA4-Fc chimera (R&D systems) (human) (UniProt P16410) (assay: ELISA, signal over SA).

Binder	ELISA S/N(SA)
GGCLHPYLPIFSVHFCAL (peptide, not shown: large carriers; small tags and cut ends) [C4m#19-5th2w-NNS6-87]	4.5
GGCLHPWLPIVSCHFCPR (peptide, not shown: large carriers; small tags and cut ends) [C4m#19-5th2w-NNS6-68]	4.6
GGCCHPWLPIRSVHFCPF (peptide, not shown: large carriers; small tags and cut ends) [C4m#19-5th2w-NNS6-61]	4.3
GGCSHPYLPIHSRHFCLS (peptide, not shown: large carriers; small tags and cut ends) [C4m3127-4th-NNS6-70]	4.6
GGCFHPFLPIQSRHFCCR (peptide, not shown: large carriers; small tags and cut ends) [C4m#19-5th2w-NNS6-93]	3.4
GGCWHPVLPIRSIHFCGC (peptide, not shown: large carriers; small tags and cut ends) [C4m3127-4th-NNS6-37]	3.5
GGCMHPYLPIRSFHFCSC (peptide, not shown: large carriers; small tags and cut ends) [C4m#19-5th4w-NN6-49]	4
GGCWHPVLPIRSGHFCSR (peptide, not shown: large carriers; small tags and cut ends) [C4m3127-4th-NNS6-95]	3.4
GGCMHPSLPIWSWHFCPH (peptide, not shown: large carriers; small tags and cut ends) [C4m3127-4th-NNS6-19]	4.1
GGCRHPFLPIFSVHFCPF (peptide, not shown: large carriers; small tags and cut ends) [C4m#19-5th2w-NNS6-66]	4.4
GGCFHPFLPIRSHHFCML (peptide, not shown: large carriers; small tags and cut ends) [C4m#19-5th4w-NN6-40]	4

The next lines start with the values.

ELISA S/N(SA)	Binder
3.1	GGCWHPVLPIRSDHFCCR (peptide, not shown: large carriers; small tags and cut ends) [C4m#19-5th2w-NNS6-41]
4.4	GGCLHPFLPILSLHFCPF (peptide, not shown: large carriers; small tags and cut ends) [C4m3127-4th-NNS6-20]
3.8	GGCRHPFLPIFSWHFCAV (peptide, not shown: large carriers; small tags and cut ends) [C4m#19-5th4w-NN6-80]
3.6	GGCLHPFLPIVSWHFCPC (peptide, not shown: large carriers; small tags and cut ends) [C4m#19-5th2w-NNS6-80]
